Measurements from IntAct's records for PubMed 21946559.

B1: Leucine-rich repeat-containing protein 4C (Homo sapiens), Q9HCJ2 (parent)
chain: MLNKMTLHPQQIMIGPRFNRALFDPLLVVLLALQLLVVAGLVRAQTCPSVCSCSNQFSKVICVRKNLREVPDGISTNTRLLNLHENQIQIIKVNSFKHLRHLEILQLSRNHIRTIEIGAFNGLANLNTLELFDNRLTTIPNGAFVYLSKLKELWLRNNPIESIPSYAFNRIPSLRRLDLGELKRLSYISEGAFEGLSNLRYLNLAMCNLREIPNLTPLIKLDELDLSGNHLSAIRPGSFQGLMHLQKLWMIQSQIQVIERNAFDNLQSLVEINLAHNNLTLLPHDLFTPLHHLERIHLHHNPWNCNCDILWLSWWIKDMAPSNTACCARCNTPPNLKGRYIGELDQNYFTCYAPVIVEPPADLNVTEGMAAELKCRASTSLTSVSWITPNGTVMTHGAYKVRIAVLSDGTLNFTNVTVQDTGMYTCMVSNSVGNTTASATLNVTAATTTPFSYFSTVTVETMEPSQDEARTTDNNVGPTPVVDWETTNVTTSLTPQSTRSTEKTFTIPVTDINSGIPGIDEVMKTTKIIIGCFVAITLMAAVMLVIFYKMRKQHHRQNHHAPTRTVEIINVDDEITGDTPMESHLPMPAIEHEHLNHYNSYKSPFNHTTTVNTINSIHSSVHEPLLIRMNSKDNVQETQI
partner: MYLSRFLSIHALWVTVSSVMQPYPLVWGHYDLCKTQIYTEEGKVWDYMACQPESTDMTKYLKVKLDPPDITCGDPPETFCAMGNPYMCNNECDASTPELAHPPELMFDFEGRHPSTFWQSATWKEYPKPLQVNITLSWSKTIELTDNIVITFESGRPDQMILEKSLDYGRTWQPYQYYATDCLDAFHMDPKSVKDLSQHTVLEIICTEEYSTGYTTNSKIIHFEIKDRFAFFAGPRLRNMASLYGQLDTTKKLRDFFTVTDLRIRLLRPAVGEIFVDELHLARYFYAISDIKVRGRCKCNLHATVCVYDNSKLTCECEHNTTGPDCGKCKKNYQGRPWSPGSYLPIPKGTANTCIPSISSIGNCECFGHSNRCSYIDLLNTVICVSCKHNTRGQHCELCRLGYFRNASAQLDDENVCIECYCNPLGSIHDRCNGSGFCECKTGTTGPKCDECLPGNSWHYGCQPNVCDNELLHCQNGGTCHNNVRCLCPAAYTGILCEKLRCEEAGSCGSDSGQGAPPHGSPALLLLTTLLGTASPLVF
B2: Leucine-rich repeat-containing protein 4 (Homo sapiens), Q9HBW1 (parent)
chain: MKLLWQVTVHHHTWNAILLPFVYLTAQVWILCAAIAAAASAGPQNCPSVCSCSNQFSKVVCTRRGLSEVPQGIPSNTRYLNLMENNIQMIQADTFRHLHHLEVLQLGRNSIRQIEVGAFNGLASLNTLELFDNWLTVIPSGAFEYLSKLRELWLRNNPIESIPSYAFNRVPSLMRLDLGELKKLEYISEGAFEGLFNLKYLNLGMCNIKDMPNLTPLVGLEELEMSGNHFPEIRPGSFHGLSSLKKLWVMNSQVSLIERNAFDGLASLVELNLAHNNLSSLPHDLFTPLRYLVELHLHHNPWNCDCDILWLAWWLREYIPTNSTCCGRCHAPMHMRGRYLVEVDQASFQCSAPFIMDAPRDLNISEGRMAELKCRTPPMSSVKWLLPNGTVLSHASRHPRISVLNDGTLNFSHVLLSDTGVYTCMVTNVAGNSNASAYLNVSTAELNTSNYSFFTTVTVETTEISPEDTTRKYKPVPTTSTGYQPAYTTSTTVLIQTTRVPKQVAVPATDTTDKMQTSLDEVMKTTKIIIGCFVAVTLLAAAMLIVFYKLRKRHQQRSTVTAARTVEIIQVDEDIPAATSAAATAAPSGVSGEGAVVLPTIHDHINYNTYKPAHGAHWTENSLGNSLHPTVTTISEPYIIQTHTKDKVQETQI
partner: B1 partner
B3: Leucine-rich repeat-containing protein 4 (Homo sapiens), Q9HBW1 (parent)
chain: B2 chain
partner: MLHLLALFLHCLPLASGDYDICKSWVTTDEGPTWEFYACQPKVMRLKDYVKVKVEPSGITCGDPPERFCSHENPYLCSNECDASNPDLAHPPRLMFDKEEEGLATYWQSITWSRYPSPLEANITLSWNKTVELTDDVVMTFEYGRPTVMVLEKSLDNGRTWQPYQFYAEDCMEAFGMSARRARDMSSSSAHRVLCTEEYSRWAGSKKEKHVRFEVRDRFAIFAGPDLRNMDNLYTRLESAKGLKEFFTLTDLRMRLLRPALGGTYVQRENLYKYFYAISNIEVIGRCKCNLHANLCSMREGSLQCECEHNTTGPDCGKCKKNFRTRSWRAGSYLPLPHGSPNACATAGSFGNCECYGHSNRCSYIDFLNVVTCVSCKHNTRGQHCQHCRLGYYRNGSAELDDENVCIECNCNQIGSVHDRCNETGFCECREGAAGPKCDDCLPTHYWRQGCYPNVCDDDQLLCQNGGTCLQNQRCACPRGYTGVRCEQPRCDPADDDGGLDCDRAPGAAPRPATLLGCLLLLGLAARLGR
B4: Leucine-rich repeat-containing protein 4C (Homo sapiens), Q9HCJ2 (parent)
chain: B1 chain
partner: B3 partner
B5: Netrin-G1 (Homo sapiens), Q9Y2I2 (parent)
chain: B1 partner
partner: B1 chain
B6: Netrin-G1 (Homo sapiens), Q9Y2I2 (parent)
chain: B1 partner
partner: B2 chain
B7: Netrin-G2 (Homo sapiens), Q96CW9 (parent)
chain: B3 partner
partner: B2 chain
B8: Netrin-G2 (Homo sapiens), Q96CW9 (parent)
chain: B3 partner
partner: B1 chain

Variants of: B1
Settings: with ntng1_human NTNG1, Q9Y2I2

effect of a mutation on the interaction | Variant
disrupting interaction | A205T

Variants of: B2
Settings: with ntng1_human NTNG1, Q9Y2I2

effect of a mutation on the interaction | Variant
disrupting interaction | G204T

Variants of: B3
Settings: with ntng2_human NTNG2, Q96CW9

effect of a mutation on the interaction | Variant
disrupting interaction | G204T

Variants of: B4
Settings: with ntng2_human NTNG2, Q96CW9

effect of a mutation on the interaction | Variant
disrupting interaction | A205T

Variants of: B5
Settings: with lrc4c_human LRRC4C, Q9HCJ2

effect of a mutation on the interaction | Variant
disrupting interaction | Y86T
disrupting interaction | P85A

Variants of: B6
Settings: with lrrc4_human LRRC4, Q9HBW1

effect of a mutation on the interaction | Variant
disrupting interaction | Y86T
disrupting interaction | P85A

Variants of: B7
Settings: with lrrc4_human LRRC4, Q9HBW1

effect of a mutation on the interaction | Variant
disrupting interaction | P74A
disrupting interaction | Y75T

Variants of: B8
Settings: with lrc4c_human LRRC4C, Q9HCJ2

effect of a mutation on the interaction | Variant
disrupting interaction | P74A
disrupting interaction | Y75T
